Legend:
[1] = target: the molecule itself; assay: velocity sedimentation in a sucrose gradient
negative staining and EM = target: the molecule itself; assay: negative staining and EM

Protein | binding result [1] | binding result (negative staining and EM)
recombinant Pil1 (natural protein, S. cerevisiae, UniProt P53252 1-339, looked up) MHRTYSLRNSRAPTASQLQNPPPPPSTTKGRFFGKGGLAYSFRRSAAGAFGPELSRKLSQLVKIEKNVLRSMELTANERRDAAKQLSIWGLENDDDVSDITDKLGVLIYEVSELDDQFIDRYDQYRLTLKSIRDIEGSVQPSRDRKDKITDKIAYLKYKDPQSPKIEVLEQELVRAEAESLVAEAQLSNITRSKLRAAFNYQFDSIIEHSEKIALIAGYGKALLELLDDSPVTPGETRPAYDGYEASKQIIIDAESALNEWTLDSAQVKPTLSFKQDYEDFEPEEGEEEEEEDGQGRWSEDEQEDGQIEEPEQEEEGAVEEHEQVGHQQSESLPQQTTA | binds | 
recombinant pil1(4D) (natural protein, S. cerevisiae, UniProt P53252 1-339, looked up) MHRTYSLRNSRAPTASQLQNPPPPPSTTKGRFFGKGGLAYSFRRDAAGAFGPELSRKLDQLVKIEKNVLRSMELTANERRDAAKQLSIWGLENDDDVSDITDKLGVLIYEVSELDDQFIDRYDQYRLTLKSIRDIEGSVQPSRDRKDKITDKIAYLKYKDPQSPKIEVLEQELVRAEAESLVAEAQLSNITRSKLRAAFNYQFDSIIEHSEKIALIAGYGKALLELLDDDPVDPGETRPAYDGYEASKQIIIDAESALNEWTLDSAQVKPTLSFKQDYEDFEPEEGEEEEEEDGQGRWSEDEQEDGQIEEPEQEEEGAVEEHEQVGHQQSESLPQQTTA |  | binds
pil1ΔN (domain or fragment, S. cerevisiae, UniProt P53252 36-339, looked up) GGLAYSFRRSAAGAFGPELSRKLSQLVKIEKNVLRSMELTANERRDAAKQLSIWGLENDDDVSDITDKLGVLIYEVSELDDQFIDRYDQYRLTLKSIRDIEGSVQPSRDRKDKITDKIAYLKYKDPQSPKIEVLEQELVRAEAESLVAEAQLSNITRSKLRAAFNYQFDSIIEHSEKIALIAGYGKALLELLDDSPVTPGETRPAYDGYEASKQIIIDAESALNEWTLDSAQVKPTLSFKQDYEDFEPEEGEEEEEEDGQGRWSEDEQEDGQIEEPEQEEEGAVEEHEQVGHQQSESLPQQTTA |  | binds
lsp1ΔN (domain or fragment, S. cerevisiae, UniProt Q12230 36-341, looked up) ASIASSFRKNAAGNFGPELARKLSQLVKTEKGVLRAMEVVASERREAAKQLSLWGADNDDDVSDVTDKLGVLIYELGELQDQFIDKYDQYRVTLKSIRNIEASVQPSRDRKEKITDEIAHLKYKDPQSTKIPVLEQELVRAEAESLVAEAQLSNITREKLKAAYSYMFDSLRELSEKFALIAGYGKALLELLDDSPVTPGEARPAYDGYEASRQIIMDAESALESWTLDMAAVKPTLSFHQTVDDVYEDEDGEEEEEPEIQNGDIPGQVVEEEEVEWTTEVPVDDEAHEADHHVSQNGHTSGSENI |  | binds
recombinant Lsp1 (natural protein, S. cerevisiae, UniProt Q12230 1-341, looked up) MHRTYSLRNQRAPTAAELQAPPPPPSSTKSKFFGKASIASSFRKNAAGNFGPELARKLSQLVKTEKGVLRAMEVVASERREAAKQLSLWGADNDDDVSDVTDKLGVLIYELGELQDQFIDKYDQYRVTLKSIRNIEASVQPSRDRKEKITDEIAHLKYKDPQSTKIPVLEQELVRAEAESLVAEAQLSNITREKLKAAYSYMFDSLRELSEKFALIAGYGKALLELLDDSPVTPGEARPAYDGYEASRQIIMDAESALESWTLDMAAVKPTLSFHQTVDDVYEDEDGEEEEEPEIQNGDIPGQVVEEEEVEWTTEVPVDDEAHEADHHVSQNGHTSGSENI | binds | 

— PMC3257569 (The Journal of Cell Biology, 2011)
